Laboratory results published in patent CN116239682A (WUHAN INST OF BIOLOGICAL PRODUCTS CO LTD, dated 2023).

Experiments:
[1] = target: T1, CV-A4结构蛋白VP1的1号肽段 (VP1前1-15氨基酸) (Coxsackievirus A4); test: indirect ELISA on coated overlapping VP1 peptides, 7H11E 1μg/ml
T1 construct: Synthetic peptide; also called VP1 1-15
T1 peptide: GDAIADAIQNTVTTT

VP1-7A-G = target: T2, VP1-7A-G (Coxsackievirus A4); test: indirect ELISA on coated mutant peptide (+ means ELISA positive)
T2 construct: Synthetic single-site mutant peptide; also called VP1 1-15 peptide, position 7 A-G
T2 peptide: GDAIADGIQNTVTTT

VP1-8I-G = target: T3, VP1-8I-G (Coxsackievirus A4); test: as above
T3 construct: Synthetic single-site mutant peptide; also called VP1 1-15 peptide, position 8 I-G
T3 peptide: GDAIADAGQNTVTTT

VP1-9Q-G = target: T4, VP1-9Q-G (Coxsackievirus A4); test: as above
T4 construct: Synthetic single-site mutant peptide; also called VP1 1-15 peptide, position 9 Q-G
T4 peptide: GDAIADAIGNTVTTT

VP1-10N-G = target: T5, VP1-10N-G (Coxsackievirus A4); test: as above
T5 construct: Synthetic single-site mutant peptide; also called VP1 1-15 peptide, position 10 N-G
T5 peptide: GDAIADAIQGTVTTT

VP1-11T-G = target: T6, VP1-11T-G (Coxsackievirus A4); test: as above
T6 construct: Synthetic single-site mutant peptide; also called VP1 1-15 peptide, position 11 T-G
T6 peptide: GDAIADAIQNGVTTT

VP1-12V-G = target: T7, VP1-12V-G (Coxsackievirus A4); test: as above
T7 construct: Synthetic single-site mutant peptide; also called VP1 1-15 peptide, position 12 V-G
T7 peptide: GDAIADAIQNTGTTT

VP1-13T-G = target: T8, VP1-13T-G (Coxsackievirus A4); test: as above
T8 construct: Synthetic single-site mutant peptide; also called VP1 1-15 peptide, position 13 T-G
T8 peptide: GDAIADAIQNTVGTT

VP1-14T-G = target: T9, VP1-14T-G (Coxsackievirus A4); test: as above
T9 construct: Synthetic single-site mutant peptide; also called VP1 1-15 peptide, position 14 T-G
T9 peptide: GDAIADAIQNTVTGT

VP1-15T-G = target: T10, VP1-15T-G (Coxsackievirus A4); test: as above
T10 construct: Synthetic single-site mutant peptide; also called VP1 1-15 peptide, position 15 T-G
T10 peptide: GDAIADAIQNTVTTG

VP1-5A-G = target: T11, VP1-5A-G (Coxsackievirus A4); test: as above
T11 construct: Synthetic single-site mutant peptide; also called VP1 1-15 peptide, position 5 A-G
T11 peptide: GDAIGDAIQNTVTTT

VP1-2D-G = target: T12, VP1-2D-G (Coxsackievirus A4); test: indirect ELISA on coated mutant peptide (- means ELISA negative)
T12 construct: Synthetic single-site mutant peptide; also called VP1 1-15 peptide, position 2 D-G
T12 peptide: GGAIADAIQNTVTTT

VP1-3A-G = target: T13, VP1-3A-G (Coxsackievirus A4); test: as above
T13 construct: Synthetic single-site mutant peptide; also called VP1 1-15 peptide, position 3 A-G
T13 peptide: GDGIADAIQNTVTTT

VP1-4I-G = target: T14, VP1-4I-G (Coxsackievirus A4); test: as above
T14 construct: Synthetic single-site mutant peptide; also called VP1 1-15 peptide, position 4 I-G
T14 peptide: GDAGADAIQNTVTTT

VP1-6D-G = target: T15, VP1-6D-G (Coxsackievirus A4); test: as above
T15 construct: Synthetic single-site mutant peptide; also called VP1 1-15 peptide, position 6 D-G
T15 peptide: GDAIAGAIQNTVTTT

B1: 单克隆抗体7H11E (antibody, V domains shown)
VH: SGPGLVAPSQSLSITCTVSGFSLPSYDVHWVRQPPGKGLEWLGVIWAGGSTHYNSALMSRLSISKDNSKSQVFLKMNSLQTDDTAMYYCAGLRAFAMDYWGQGTSVTVSS
VL: PIVLTQSPAILSVSPGERVSFSCRASQSIGTNIHWYQQGANGSPRLLIKYASESISGIPSRFSGSGSGTDFTLSINSVESEDIADYYCQQSNSWPWTFGGGTKLEIQR
notes: Mouse hybridoma antibody purified from ascites, IgG2b subtype; also called 7H11E单克隆抗体
B1: binds [1]; binds (VP1-7A-G); binds (VP1-8I-G). B1: binds (VP1-9Q-G); binds (VP1-10N-G); binds (VP1-11T-G). B1: binds (VP1-12V-G); binds (VP1-13T-G); binds (VP1-14T-G). B1: binds (VP1-15T-G); binds (VP1-5A-G); no binding (VP1-2D-G). B1: no binding (VP1-3A-G); no binding (VP1-4I-G); no binding (VP1-6D-G).
